According to patent publication US20070184522A1, “Cell death modulation via antagonists of Fasl and Fas activation” (University of Pittsburgh of the Commonwealth System of …, priority 2004, published 2007):

What was measured:
[1] = test system: Caspase 3 activation in Jurkat cells; assay: Cleaved Caspase 3 Western blot in apoptotic Jurkat cells; type: cell-based, human; conditions: Fas-ligand
Protocol: (§1) For FIG. 4a, Jurkat cells (1.5×10^5) were overnight treated in triplicate with 5 ng/ml of crosslinked human Fas ligand with or without 5 μg/ml of recombinant AlphaMet or 1 μg/ml of the indicated polypeptides. Percent apoptosis was determined by Trypan Blue staining using a hemocytometer. The data are representative and were repeated at least four times. […] The 17 kDa fragment of cleaved Caspase 3 is visualized by this antibody. The blot was reprobed for β-actin as a loading control. For FIG. 4c, serum deprived Hepa 1-6 cells (3×10^5) were overnight treated with 1 μg/ml of crosslinked mouse Fas ligand with or without AlphaMet or the indicated polypeptide. Media were collected and centrifuged to pellet the dead cells. […] The data in FIG. 4c represents three independent experiments.
To provide biochemical evidence that AlphaMet inhibited FasL-mediated apoptosis, the activation of Caspase 3, a down stream executioner in Fas mediated apoptosis, was analyzed in apoptotic Jurkat cells.

[2] = test system: Jurkat cells; assay: Fas-ligand induced apoptosis in Jurkat cells (Trypan Blue, flow cytometry); type: cell-based, human
Protocol: as §1
Apoptosis assay. Pre-washed Jurkat cells in RPMI 1640 medium containing 1% FBS were inoculated in 96-wells at a density of 10^5 cells per well. Apoptosis was induced by cross-linked human Fas-ligand (R&D Systems) at a concentration of 0.5 ng/ml or Anti-Fas (human, activating) clone CH11 (Upstate biotechnology) at a concentration of 500 ng /ml. Hepa 1-6 cells were overnight starved before induction of apoptosis. The apoptosis in Hepa 1-6 was induced by anti-mouse Fas antibody Jo2 (200 ng/ml) or human recombinant Fas-ligand. The extent of cell viability and apoptosis was determined by several methods such as Trypan Blue stain, flow cytometry, LDH assay, and Hoechst staining.

[3] = target: T1, Fas-Fc (extracellular part of Fas) (Mus musculus, UniProt P25446); assay: Fas-Fc pull down assay with protein-A agarose; type: binding
T1 construct: purchased R&D
T1 sequence (P25446 22-169 limits assumed): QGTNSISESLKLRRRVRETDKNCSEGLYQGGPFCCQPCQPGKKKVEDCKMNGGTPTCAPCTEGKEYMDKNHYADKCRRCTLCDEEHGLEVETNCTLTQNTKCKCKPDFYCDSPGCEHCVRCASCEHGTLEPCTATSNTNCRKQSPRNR
From the text: The Met alpha but not beta chain binds to Fas (FIG. 1a). Various regions of the mouse Met cDNA corresponding to the alpha chain or the extra-cellular portion of the Met beta chain were cloned into expression vectors (pCRT7 TOPO/AlphaMet or pCRT7 TOPO/beta chain) and subjected to in vitro transcription/translation by a rabbit reticolucyte lysate translation system. Empty vector was included in each experiment as a control. The expressed proteins were labeled with ^35S-Methionine. Pull down assays were performed using Fas-Fc, a chimeric molecule which lacks the interacellular cytoplasmic domain and protein-A agarose as described in Wang et al., 2002. FIG. 1b is a schematic presentation of the Met alpha chain and its mutant version used to map the region interacting with Fas. The C-terminus of each construct contains a hexa-Histidine tag for ease of detection. Start cordon ATG was added to the N-terminally truncated constructs. The YLGA (SEQ ID NO:1) motif mutation was prepared by PCR, in which YLGA (SEQ ID NO:1) was replaced by DHER (SEQ ID NO:24). […] In vitro translated ^35S-methionine labeled truncated/mutated AlphaMet proteins were pulled down with 2 μg of Fas-Fc or the same amount of IgG. Lane 1: 10% of AlphaMet input; Lane 2: AlphaMet with IgG control; Lanes 3 to 8: pull down of various truncated AlphaMet proteins; N-terminal 1-106 residues; C-terminal truncated, residues 1-210; alpha chain, residues 1-306; alpha chain with transmembrane domain, 1-338; N-terminally truncated alpha chain, residues 100-306; and N-terminally truncated with addition of the transmembrane domain 100-338, respectively. FIG. 1d depicts the amino acid sequence alignment of alpha chain with FasL, determined using the CLUSTALW, SIM+LALNVIEW, and ALIGN at ExPASy Proteomic Tools (available on the internet at us.expresly.org/tools). The numbers indicate the amino acid residues of the indicated protein. […] Recombinant His-tagged AlphaMet or its mutant version were expressed in E. coli, purified with chromatography, and subjected to Fas-Fc (lanes labeled Fas) or control IgG pull down experiments, and detected by Western blot using anti-His antibody that recognizes C-terminal His. This antibody also recognizes the Fas-Fc which is also tagged at the C-terminus by His. […] Purified recombinant AlphaMet protein (approximately 10 μg) was mixed with Hepa 1-6 cells or Jurkat cell lysates and subjected to immunoprecicitation using anti-Fas antibody or control IgG followed by Western blot using anti His-tag antibody as a probe. […] After washing the wells, anti-human […]-HRP conjugates (1:20,000) were added to detect the bound Fas-Fc using TMD dye and the OD value was determined at a wavelength of 450 nm. […]

B1: alpha subunit of Met (AlphaMet), amino acid residues 1 to 306, His-tagged (receptor, mouse)
chain: MKAPTVLAPGILVLLLSLVQRSHGECKEALVKSEMNVNMKYQLPNFTAETPIQNVVLHGHHIYLGATNYIYVLNDKDLQKVSEFKTGPVLEHPDCLPCRDCSSKANSSGGVWKDNINMALLVDTYYDDQLISCGSVNRGTCQRHVLPPDNSADIQSEVHCMFSPEEESGQCPDCVVSALGAKVLLSEKDRFINFFVGNTINSSYPPGYSLHSISVRRLKETQDGFKFLTDQSYIDVLPEFLDSYPIKYIHAFESNHFIYFLTVQKETLDAQTFHTRIIRFCSVDSGLHSYMEMPLECILTEKRRKRHHHHHH
[1]
  Caspase 3 activation (17 kDa cleaved form): markedly reduced
[2]; Fas-ligand overnight, AlphaMet 5 μg/ml, Trypan Blue
  death rate: 12%
[2]; Propidium Iodide flow cytometry, Fas-ligand
  sub-G1 (apoptotic) population: 8%
[3]; in vitro translated 35S-labeled proteins, autoradiography, listed as Met alpha chain
  Fas binding in Fas-Fc pull down: bound specifically to the Fas molecule
[3]; in vitro translated 35S-labeled proteins, autoradiography, listed as full length AlphaMet
  Fas binding in Fas-Fc pull down: bound Fas very efficiently
[3]; recombinant His-tagged proteins expressed and purified in E. coli, Western blot anti-His
  Fas binding in Fas-Fc pull down: bound avidly
